PMC6911355

Experiments:
[1] = molecular target: TDP-43 1-260 (NTD-RRM1-RRM2) (human, UniProt Q13148 1-260); experiment: ALPHA
[2] = molecular target: TDP-43 102-269 (RRM1-RRM2) (human, UniProt Q13148 102-269); experiment: ALPHA
Chain of TDP-43 102-269 (RRM1-RRM2) (Q13148 102-269): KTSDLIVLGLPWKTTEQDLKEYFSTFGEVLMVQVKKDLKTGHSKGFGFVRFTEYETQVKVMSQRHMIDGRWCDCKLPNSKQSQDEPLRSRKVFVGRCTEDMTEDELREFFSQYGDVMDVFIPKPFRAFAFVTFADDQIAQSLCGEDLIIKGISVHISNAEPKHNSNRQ

Chain of TDP-43 1-260 (NTD-RRM1-RRM2) (Q13148 1-260): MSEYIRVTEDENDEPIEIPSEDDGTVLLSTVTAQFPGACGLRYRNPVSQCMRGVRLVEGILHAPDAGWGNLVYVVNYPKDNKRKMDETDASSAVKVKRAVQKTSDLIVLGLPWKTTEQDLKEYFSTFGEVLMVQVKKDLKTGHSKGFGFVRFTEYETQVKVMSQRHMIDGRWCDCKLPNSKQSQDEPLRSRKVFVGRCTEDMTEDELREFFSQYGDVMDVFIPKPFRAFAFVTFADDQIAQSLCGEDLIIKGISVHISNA

B1: (UG)6 (ssRNA)
RNA: UGUGUGUGUGUG
B1 showed a Kd [1] of 400 ± 40 pM and a Kd [2] of 730 ± 100 pM.
